Measured values taken from publication PMC11292656.

Target: sVP40Δ43 R214A (Sudan virus) (UniProt Q5XX06)
Assay: SEC

Substance: sVP40Δ43 R214A (from UniProt Q5XX06 44-326) (domain or fragment)
- octameric percentage of total VP40 AUC: 50%
